Assay results taken from patent US20080045454A1 (TRUSTEES OF COLUMBIA UNIVERSITY IN THE CITY OF NEW YORK, published 2008).

T1: TRIMStop fused to lexA (owl monkey (Aotus trivirgatus))
T1 construct: Yeast two-hybrid bait; also called LexA-TRIMStop; not shown: LexA, fusion partner of the yeast two-hybrid system
T1 chain: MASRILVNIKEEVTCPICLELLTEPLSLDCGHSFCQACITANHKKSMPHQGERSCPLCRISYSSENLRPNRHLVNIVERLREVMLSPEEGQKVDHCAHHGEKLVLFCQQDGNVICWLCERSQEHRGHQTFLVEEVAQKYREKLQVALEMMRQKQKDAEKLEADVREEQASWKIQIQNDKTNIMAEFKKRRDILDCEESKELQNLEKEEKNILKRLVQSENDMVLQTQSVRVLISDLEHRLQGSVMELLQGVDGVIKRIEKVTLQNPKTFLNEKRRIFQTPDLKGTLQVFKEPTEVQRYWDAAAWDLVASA

B1: TRIMStop expressed in fusion with the B42 activation domain (other, not shown: large carriers)
chain: T1 chain
notes: also called B42-TRIMStop
B2: 3× FLAG N-terminal-tagged TRIMStop (other)
chain: T1 chain
notes: also called FLAG-TRIMStop; not shown: 3x FLAG tag of p3xFLAG.CMV (SIGMA)

Columns and labels:
TRIMStop fused to lexA = target: T1, TRIMStop fused to lexA; test: yeast two-hybrid, β-galactosidase reporter
Experimental: (A) Yeast two-hybrid system. […] Pairs of fused LexA and B42 expression plasmids were transformed into Saccharomyces cerevisiae strain EGY48. For each transformant, β-galactosidase activity for three colonies is reported in Miller units with the standard deviation. (B) Binding in mammalian cells.
Fusions of these proteins with LexA and/or B42 were constructed, and the interactions between fusion proteins were analyzed using a previously described system (37) in which reporter gene β-galactosidase activity was assessed with a quantitative assay (43).

TRIMCyp fused to lexA = target: T2, TRIMCyp fused to lexA (owl monkey (Aotus trivirgatus)); test: yeast two-hybrid, β-galactosidase reporter
T2 construct: Yeast two-hybrid bait; also called LexA-TRIMCyp; not shown: LexA, fusion partner of the yeast two-hybrid system

[1] = target: T3, GST-TRIM5αhu (glutathione S-transferase fusion with full-length human TRIM5α) (human, UniProt Q9C035 2-493); test: immunofluorescence colocalization in cotransfected TE671 cells
T3 construct: mature; Produced in 293T cells; also called GST-T5α; not shown: glutathione S-transferase (GST)
T3 sequence (Q9C035 2-493): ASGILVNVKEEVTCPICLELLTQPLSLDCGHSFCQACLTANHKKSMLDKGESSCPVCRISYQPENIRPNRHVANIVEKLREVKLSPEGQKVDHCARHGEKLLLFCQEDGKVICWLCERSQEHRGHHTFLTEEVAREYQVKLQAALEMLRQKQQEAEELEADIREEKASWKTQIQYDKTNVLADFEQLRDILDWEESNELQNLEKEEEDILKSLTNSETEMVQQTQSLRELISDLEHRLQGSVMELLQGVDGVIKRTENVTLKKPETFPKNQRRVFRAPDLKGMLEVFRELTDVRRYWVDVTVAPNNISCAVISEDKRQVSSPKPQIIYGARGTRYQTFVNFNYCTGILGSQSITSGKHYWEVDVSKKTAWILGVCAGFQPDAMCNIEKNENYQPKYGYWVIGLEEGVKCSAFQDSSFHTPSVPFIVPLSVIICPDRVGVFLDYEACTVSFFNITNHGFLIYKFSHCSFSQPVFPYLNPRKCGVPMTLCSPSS

Row | Binder | binding result (TRIMStop fused to lexA) | binding result (TRIMCyp fused to lexA) | binding result [1]
1 | B1 | binds | binds | 
2 | B2 |  |  | binds
